This note sets out measurements from publication PMC1952073, “The N-Myc Down Regulated Gene1 (NDRG1) Is a Rab4a Effector Involved in Vesicular Recycling of E-Cadherin” (PLoS ONE, 2007).

The experiment addresses T1, recombinant flag-tagged NDRG1 purified from Drosophila S2 cells (human, UniProt Q92597-1 1-394).
T1 construct: NDRG1; The vector pMT/BiP/V5-His adds a BiP secretion signal (the protein was collected as secreted protein); also called NDRG1flag; NDRG1Flag; not shown: Flag, C-terminal, kept
Put plainly: pull-down; NDRG1Flag bound to M2 agarose; 1 microgram of purified Rab4aGST loaded with 10 µM GTPγS (30 min, 37 °C) in 20 mM HEPES, 1 mM MgCl2, 1 mM DTT, 100 mM potassium acetate, incubated 1 h; Western blot. Conditions: both partners purified.

T1 sequence (Q92597 whole entry): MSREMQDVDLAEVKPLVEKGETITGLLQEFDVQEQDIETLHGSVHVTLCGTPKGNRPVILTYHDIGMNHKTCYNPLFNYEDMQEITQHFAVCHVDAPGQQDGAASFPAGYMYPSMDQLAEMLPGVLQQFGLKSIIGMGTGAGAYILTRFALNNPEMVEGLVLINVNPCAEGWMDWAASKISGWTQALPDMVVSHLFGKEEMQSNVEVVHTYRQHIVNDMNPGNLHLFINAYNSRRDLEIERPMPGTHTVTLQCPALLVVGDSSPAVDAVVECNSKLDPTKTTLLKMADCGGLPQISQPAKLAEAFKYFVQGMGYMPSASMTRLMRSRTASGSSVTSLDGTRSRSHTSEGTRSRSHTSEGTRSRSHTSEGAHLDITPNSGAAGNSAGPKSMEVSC

B1: Rab4a produced as a GST fusion protein (natural protein, UniProt P20338 1-218, looked up)
chain: MSQTAMSETYDFLFKFLVIGNAGTGKSCLLHQFIEKKFKDDSNHTIGVEFGSKIINVGGKYVKLQIWDTAGQERFRSVTRSYYRGAAGALLVYDITSRETYNALTNWLTDARMLASQNIVIILCGNKKDLDADREVTFLEASRFAQENELMFLETSALTGENVEEAFVQCARKILNKIESGELDPERMGSGIQYGDAALRQLRSPRRAQAPNAQECGC
notes: Rab4a amplified from a prostate cDNA library and cloned in PGEX2T; also called Rab4aGST; recombinant Rab4a; source: E. coli BL21 (DE3), purified (glutathione agarose)
For B1, the binding result is “binds”.
